The values below come from the supplement of paper PMC11246515.

± gives the standard deviation of the averaged measurements. Some results are limits rather than exact numbers.

The data set can be described thus: total protein half-life in vivo (active degradation + dilution); higher = more stable protein.
The mark [1] stands for this setting: E. coli NCM3722 delta-clpP delta-lon delta-hslV, growth: N-lim chemostat, doubling time 6 h.
Setting [2] is: E. coli NCM3722 delta-clpP, growth: N-lim chemostat, doubling time 6 h.
Setting [3] is: E. coli NCM3722 delta-hslV, growth: N-lim chemostat, doubling time 6 h.
Where [4] appears, read: E. coli NCM3722 delta-smpB, growth: N-lim chemostat, doubling time 6 h.
The mark [5] stands for this setting: wild type E. coli NCM3722, growth: C-lim chemostat, doubling time 3 h.
Setting [6] is: wild type E. coli NCM3722, growth: C-lim chemostat, doubling time 6 h.
Where [7] appears, read: wild type E. coli NCM3722, growth: C-lim chemostat, doubling time 12 h.
Where [8] appears, read: wild type E. coli NCM3722, growth: N-lim chemostat, doubling time 6 h.
Where [9] appears, read: wild type E. coli NCM3722, growth: N-lim chemostat, doubling time 12 h.
[10] abbreviates: wild type E. coli NCM3722, growth: P-lim chemostat, doubling time 6 h.
The mark [11] stands for this setting: wild type E. coli NCM3722, growth: P-lim chemostat, doubling time 12 h.
[12] abbreviates: E. coli NCM3722 delta-lon, growth: N-lim chemostat, doubling time 6 h.

“MAGINLNKKLWRIPQQGMVRGVCAGIANYFDVPVKLVRILVVLSIFFGLALFTLVAYIILSFALDPMPDNMAFGEQLPSSSELLDEVDRELAASETRLREMERYVTSDTFTLRSRFRQL [P0AFN2]”: the “total protein half-life in vivo” value is, setting by setting: under setting [1], 5.469 ± 0.044 h; under setting [2], over 8 h; under setting [3], 5.48 ± 0.47 h; under setting [4], 4.53 ± 0.38 h; under setting [5], 2.498 ± 0.015 h; under setting [6], 3.81 ± 0.91 h. In addition, the “total protein half-life in vivo” value was 6.7 ± 3.6 h under setting [7]; 4.862 ± 0.037 h under setting [8]; 9.24 ± 0.17 h under setting [9]; 7.55 h under setting [10]; 10 ± 0.79 h under setting [11].
In the case of “MKMLRDPLFWLIALFVALIFWLPYSQPLFAALFPQLPRPVYQQESFAALALAHFWLVGISSLFAVIIGTGAGIAVTRPWGAEFRPLVETIAAVGQTFPPVAVLAIAVPVIGFGLQPAIIALILYGVLPVLQATLAGLGAIDASVTEVAKGMGMSRGQRVRKVELPLAAPVILAGVRTSVIINIGTATIASTVGASTLGTPIIIGLSGFNTAYVIQGALLVALAAIIADRLFERLVQALSQHAK”, the “total protein half-life in vivo” value under setting [9] is 5.89 h.
Take “MKLAACFLTLLPGFAVAASWTSPGFPAFSEQGTGTFVSHAQLPKGTRPLTLNFDQQCWQPADAIKLNQMLSLQPCSNTPPQWRLFRDGEYTLQIDTRSGTPTLMISIQNAAEPVASLVRECPKWDGLPLTVDVSATFPEGAAVRDYYSQQIAIVKNGQIMLQPAATSNGLLLLERAETDTSAPFDWHNATVYFVLTDRFENGDPSNDQSYGRHKDGMAEIGTFHGGDLRGLTNKLDYLQQLGVNALWISAPFEQIHGWVGGGTKGDFPHYAYHGYYTQDWTNLDANMGNEADLRTLVDSAHQRGIRILFDVVMNHTGYATLADMQEYQFGALYLSGDEVKKSLGERWSDWKPAAGQTWHSFNDYINFSDKTGWDKWWGKNWIRTDIGDYDNPGFDDLTMSLAFLPDIKTESTTASGLPVFYKNKMDTHAKAIDGYTPRDYLTHWLSQWVRDYGIDGFRVDTAKHVELPAWQQLKTEASAALREWKKANPDKALDDKPFWMTGEAWGHGVMQSDYYRHGFDAMINFDYQEQAAKAVDCLAQMDTTWQQMAEKLQGFNVLSYLSSHDTRLFREGGDKAAELLLLAPGAVQIFYGDESSRPFGPTGSDPLQGTRSDMNWQDVSGKSAASVAHWQKISQFRARHPAIGAGKQTTLLLKQGYGFVREHGDDKVLVVWAGQQ”: the “total protein half-life in vivo” value under setting [1] was found to be 4.78 ± 0.17 h; the “total protein half-life in vivo” value under setting [2] stood at 7.23 ± 0.88 h; the “total protein half-life in vivo” value under setting [3] stood at 4.97 h; the “total protein half-life in vivo” value under setting [12] was 7.45 h; the “total protein half-life in vivo” value under setting [4] came out at 5.36 ± 0.33 h; the “total protein half-life in vivo” value under setting [5] is 3.262 ± 0.0075 h. Also, the “total protein half-life in vivo” value was found to be 6.26 ± 0.66 h under setting [6]; 5.75 h under setting [8]; 9.72 h under setting [9]; 7.07 h under setting [10]; 9.37 ± 2.8 h under setting [11].
As to “MYERYAGLIFDMDGTILDTEPTHRKAWREVLGHYGLQYDIQAMIALNGSPTWRIAQAIIELNQADLDPHALAREKTEAVRSMLLDSVEPLPLVDVVKSWHGRRPMAVGTGSESAIAEALLAHLGLRHYFDAVVAADHVKHHKPAPDTFLLCAQRMGVQPTQCVVFEDADFGIQAARAAGMDAVDVRLL”, the “total protein half-life in vivo” value was determined as 5.33 ± 0.13 h under setting [1]; 4.41 h under setting [12]; 1.29 h under setting [4]; 2.62 ± 0.62 h under setting [5]; 4.33 ± 0.098 h under setting [6]; 6.18 h under setting [7]. The “total protein half-life in vivo” value reads like this: under setting [10], 2.46 ± 0.33 h; under setting [11], 7.98 ± 0.48 h.
Regarding “MEKVMLSFDKVSAHYGKIQALHEVSLHINQGEIVTLIGANGAGKTTLLGTLCGDPRATSGRIVFDDKDITDWQTAKIMREAVAIVPEGRRVFSRMTVEENLAMGGFFAERDQFQERIKWVYELFPRLHERRIQRAGTMSGGEQQMLAIGRALMSNPRLLLLDEPSLGLAPIIIQQIFDTIEQLREQGMTIFLVEQNANQALKLADRGYVLENGHVVLSDTGDALLANEAVRSAYLGG”, the “total protein half-life in vivo” value runs as follows: under setting [1], 5.87 ± 0.53 h; under setting [2], 6.13 ± 0.64 h; under setting [3], 5.66 ± 0.54 h; under setting [12], 6.44 ± 0.9 h; under setting [4], 5.58 ± 0.61 h; under setting [5], 3.07 ± 0.055 h. Further, the “total protein half-life in vivo” value runs as follows: under setting [6], 5.86 ± 0.22 h; under setting [7], 12.4 ± 0.52 h; under setting [8], 5.51 ± 0.47 h; under setting [9], 10.1 ± 1.1 h; under setting [10], 5.94 ± 0.59 h; under setting [11], 13.5 ± 0.69 h.
Take “MLRFSANLSMLFGEYDFLARFEKAAQCGFRGVEFMFPYDYDIEELKHVLASNKLEHTLHNLPAGDWAAGERGIACIPGREEEFRDGVAAAIRYARALGNKKINCLVGKTPAGFSSEQIHATLVENLRYAANMLMKEDILLLIEPINHFDIPGFHLTGTRQALKLIDDVGCCNLKIQYDIYHMQRMEGELTNTMTQWADKIGHLQIADNPHRGEPGTGEINYDYLFKVIENSDYNGWVGCEYKPQTTTEAGLRWMDPYR”: the “total protein half-life in vivo” value runs as follows: under setting [1], 4.29 ± 0.63 h; under setting [2], 5.97 h; under setting [12], 4.98 h; under setting [4], 3.59 ± 0.17 h; under setting [7], 10.1 h; under setting [8], 3.73 h. In addition, the “total protein half-life in vivo” value under setting [9] amounted to 6.46 h, the “total protein half-life in vivo” value under setting [10] was 5.52 h and the “total protein half-life in vivo” value under setting [11] is 7.81 h.
Turning to “MNLTLKESLVTRSRVFSPWTAFYFLQSLLINLGLGYPFSLLYTAAFTAILLLLWRTLPRVQKVLVGVSSLVAACYFPFAQAYGAPNFNTLLALHSTNMEESTEILTIFPWYSYLVGLFIFALGVIAIRRKKENEKARWNTFDSLCLVFSVATFFVAPVQNLAWGGVFKLKDTGYPVFRFAKDVIVNNNEVIEEQERMAKLSGMKDTWTVTAVKPKYQTYVVVIGESARRDALGAFGGHWDNTPFASSVNGLIFADYIAASGSTQKSLGLTLNRVVDGKPQFQDNFVTLANRAGFQTWWFSNQGQIGEYDTAIASIAKRADEVYFLKEGNFEADKNTKDEALLDMTAQVLAQEHSQPQLIVLHLMGSHPQACDRTQGKYETFVQSKETSCYLYTMTQTDDLLRKLYDQLRNSGSSFSLVYFSDHGLAFKERGKDVQYLAHDDKYQQNFQVPFMVISSDDKAHRVIKARRSANDFLGFFSQWTGIKAKEINIKYPFISEKKAGPIYITNFQLQKVDYNHLGTDIFDPKP”, the “total protein half-life in vivo” value is, setting by setting: under setting [1], 4.78 ± 0.78 h; under setting [2], 4.97 ± 0.21 h; under setting [3], 5.49 ± 1.6 h; under setting [12], 5.01 h; under setting [4], 3.31 ± 0.29 h; under setting [5], 2.94 ± 0.12 h. Besides, the “total protein half-life in vivo” value under setting [7] is 10.2 ± 1.1 h, the “total protein half-life in vivo” value under setting [8] came out at 4.59 ± 0.6 h, the “total protein half-life in vivo” value under setting [9] was found to be 10.2 h and the “total protein half-life in vivo” value under setting [11] is 8.42 h.
